Experimental data: CN111138527A (INST MILITARY MEDICINE ACADEMY MILITARY SCIENCES PLA, dated 2020)

Target: 截短型抗原蛋白GPdM (Ebola virus (EBOV), UniProt Q05320 33-632)
Assay: ELISA on coated truncated GP

B1: 抗埃博拉病毒糖蛋白GP1亚基的单克隆抗体4F1 (antibody, V domains shown)
VH: EVQLVESGGGLVQPGGSLRLSCAASGFSFRIYDMHWVRQVTGRGLEWVSAIGSASDTYYRDSVKGRFTISRENAKNSLYLQMNSLRAGDTAVYYCARASFGELMFDLWGQGTLVTVSS
VL: DIQMTQSPSSLSLSPGERATLSCRASQSVGSSLAWYQQKPGQAPRLLIYAASSRATGFPDRFSGSGSGTDFTLTISRLEPEDFAVYYCQQYGGSPLTFGGGTKVEIKT
EC50: 6.9 ng/mL
